Experimental data reported in paper PMC7423370 (Science Advances, 2020).

Biological target: T1, human CLC-7 with C-terminal tandem twin Strep-tag (human, UniProt P51798 1-805)
T1 sequence: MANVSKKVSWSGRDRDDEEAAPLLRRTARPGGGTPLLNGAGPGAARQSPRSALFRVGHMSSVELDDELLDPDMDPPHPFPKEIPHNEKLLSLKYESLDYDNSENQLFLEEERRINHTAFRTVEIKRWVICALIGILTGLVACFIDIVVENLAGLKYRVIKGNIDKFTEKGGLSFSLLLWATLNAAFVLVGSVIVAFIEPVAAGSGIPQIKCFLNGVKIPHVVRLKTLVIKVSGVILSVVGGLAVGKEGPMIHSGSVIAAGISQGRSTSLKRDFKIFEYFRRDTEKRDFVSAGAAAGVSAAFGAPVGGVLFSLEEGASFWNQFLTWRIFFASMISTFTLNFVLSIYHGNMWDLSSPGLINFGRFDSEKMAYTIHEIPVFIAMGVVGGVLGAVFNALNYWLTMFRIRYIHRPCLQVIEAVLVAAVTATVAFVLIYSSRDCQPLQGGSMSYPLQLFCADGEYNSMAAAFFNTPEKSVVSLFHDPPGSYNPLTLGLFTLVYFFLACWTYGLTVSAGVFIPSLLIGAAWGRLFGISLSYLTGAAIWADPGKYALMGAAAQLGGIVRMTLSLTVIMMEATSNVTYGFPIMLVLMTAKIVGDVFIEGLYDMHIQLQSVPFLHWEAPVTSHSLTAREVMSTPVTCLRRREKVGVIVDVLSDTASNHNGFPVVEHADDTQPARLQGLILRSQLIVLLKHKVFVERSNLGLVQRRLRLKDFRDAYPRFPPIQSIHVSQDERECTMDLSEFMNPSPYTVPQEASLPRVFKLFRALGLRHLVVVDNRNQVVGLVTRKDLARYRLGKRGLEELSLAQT
Test: cryo-EM structure

B1: human Ostm1, no tag (natural protein)
chain: ALPFGSSPHRVFHDLLSEQQLLEVEDLSLSLLQGGGLGPLSLPPDLPDLDPECRELLLDFANSSAELTGCLVRSARPVRLCQTCYPLFQQVVSKMDNISRAAGNTSESQSCARSLLMADRMQIVVILSEFFNTTWQEANCANCLTNNSEELSNSTVYFLNLFNHTLTCFEHNLQGNAHSLLQTKNYSEVCKNCREAYKTLSSLYSEMQKMNELENKAEPGTHLCIDVEDAMNITRKLWSRTFNCSVPCSDTVPVIAVSVFILFLPVVFYLSSFLHSEQKKRKLILPKRLKSSTSFANIQENSN
modifications: glycosylation (NAG) at Asn93, Asn128, Asn163, Asn184, Asn194, Asn216, Asn263
binding result: binds
